Test results reported in patent US20180369341A1.

Experiments:
[1] = target: FcRn; experiment: FcRn binding assay (method not described); Aggregation Study, albiglutide in NaCl, octanoate and cysteine formulation, stored at 2-8°C for 2 months
[2] = target: FcRn; experiment: FcRn binding assay (method not described); Aggregation Study, albiglutide in NaCl, octanoate and cysteine formulation, stored at 30°C for 2 months
[3] = target: FcRn; experiment: FcRn binding assay (method not described); Aggregation Study, albiglutide in NaCl + cysteine formulation, stored at 30°C for 2 months
[4] = target: human GLP-1 receptor (human) (UniProt P43220); experiment: cell-based or functional assay
[5] = target: FcRn; experiment: FcRn binding assay (method not described); Aggregation Study, albiglutide in NaCl + cysteine formulation, stored at 2-8°C for 2 months

UniProt P43220, sequence (P43220 24-463): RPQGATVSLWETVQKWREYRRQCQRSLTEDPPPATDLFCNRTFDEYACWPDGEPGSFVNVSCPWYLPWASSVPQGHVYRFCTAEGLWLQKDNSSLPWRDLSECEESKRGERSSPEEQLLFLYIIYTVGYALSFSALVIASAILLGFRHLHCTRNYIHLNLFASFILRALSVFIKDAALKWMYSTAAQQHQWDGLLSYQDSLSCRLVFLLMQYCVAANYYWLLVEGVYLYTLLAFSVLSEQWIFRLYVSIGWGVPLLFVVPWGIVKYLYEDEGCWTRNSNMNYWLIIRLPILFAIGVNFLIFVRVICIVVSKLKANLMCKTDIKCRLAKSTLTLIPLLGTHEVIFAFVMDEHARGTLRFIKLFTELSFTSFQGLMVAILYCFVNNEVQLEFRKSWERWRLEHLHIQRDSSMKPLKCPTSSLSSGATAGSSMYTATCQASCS

decrease in FcRn binding [1]: 16%
decrease in FcRn binding [2]: 23%
decrease in FcRn binding [3]: 23%
Bioassay potency; Aggregation Study, all formulations, 2 months 30°C (lower end) [4]: 130%
Bioassay potency; Aggregation Study, all formulations, 2 months 30°C (upper end) [4]: 160%
Bioassay potency; PFS Study, Variations A and B, 1 month 40°C [4]: 180%
Bioassay potency; PFS Study, all variations, 3 months 30°C [4]: 130%
decrease in FcRn binding [5]: 6%
Substance: albiglutide (from UniProt P02768 25-609) (ligand)
